Series [1] deals with T1, Roquin-1 extROQ (mouse, UniProt Q4VGL6 89-404).
T1 sequence: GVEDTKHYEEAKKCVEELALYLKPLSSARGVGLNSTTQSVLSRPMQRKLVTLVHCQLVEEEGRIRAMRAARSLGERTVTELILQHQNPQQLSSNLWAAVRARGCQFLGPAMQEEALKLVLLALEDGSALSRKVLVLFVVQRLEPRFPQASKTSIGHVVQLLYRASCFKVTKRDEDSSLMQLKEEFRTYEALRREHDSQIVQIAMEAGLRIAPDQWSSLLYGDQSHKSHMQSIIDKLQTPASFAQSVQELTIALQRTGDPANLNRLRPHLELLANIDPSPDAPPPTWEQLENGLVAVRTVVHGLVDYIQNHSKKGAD
Nature of the series: EMSA. The conditions noted are these: EMSA: 150 mM NaCl, 20 mM Tris pH 7.0, 2 mM TCEP, 1 mM MgCl2, 0.6 ug yeast tRNAPhe per 20 ul, 15 min, temperature not stated, gel in 1x TB. In general terms: Mobility shift assays separate free from complexed probe on a gel.

Series [2] addresses T2, Roquin-1 coreROQ (mouse, UniProt Q4VGL6 171-326).
T2 sequence: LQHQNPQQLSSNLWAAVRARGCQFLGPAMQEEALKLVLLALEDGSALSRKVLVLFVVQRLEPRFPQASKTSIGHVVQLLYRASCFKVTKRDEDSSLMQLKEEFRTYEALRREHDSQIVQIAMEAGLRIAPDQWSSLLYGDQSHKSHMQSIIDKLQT
Nature of the series: EMSA. The conditions noted are these: EMSA: 150 mM NaCl, 20 mM Tris pH 7.0, 2 mM TCEP, 1 mM MgCl2, 0.6 ug yeast tRNAPhe per 20 ul, 15 min, temperature not stated, gel in 1x TB.

For series [3], the system named is Roquin-1 N-term A-site mutant (Amut) (mouse). As to the kind of experiment: EMSA. The following applies: EMSA: 150 mM NaCl, 20 mM Tris pH 7.0, 2 mM TCEP, 1 mM MgCl2, 0.6 ug yeast tRNAPhe per 20 ul, 15 min; temperature not stated; gel in 1x TB.
The subject of a further series is Roquin-1 N-term (mouse). Nature of the series: EMSA. The following applies: first binding event; EMSA: 150 mM NaCl, 20 mM Tris pH 7.0, 2 mM TCEP, 1 mM MgCl2, 0.6 ug yeast tRNAPhe per 20 ul, 15 min; temperature not stated; gel in 1x TB.
Series [4] deals with T1, Roquin-1 extROQ. As to the kind of experiment: EMSA; two-step, comparable to WT ADE-CDE; EMSA: 150 mM NaCl, 20 mM Tris pH 7.0, 2 mM TCEP, 1 mM MgCl2, 0.6 ug yeast tRNAPhe per 20 ul, 15 min; temperature not stated; gel in 1x TB. The following applies: protein: recombinant; tags: tag removed by TEV; label: 5' 32P; two hairpins.
Series [5] has as its target T1, Roquin-1 extROQ. Nature of the series: EMSA; single binding event; EMSA: 150 mM NaCl, 20 mM Tris pH 7.0, 2 mM TCEP, 1 mM MgCl2, 0.6 ug yeast tRNAPhe per 20 ul, 15 min; temperature not stated; gel in 1x TB. The conditions noted are these: protein: recombinant, tags: tag removed by TEV, label: 5' 32P.
Series [6] concerns the molecule itself. Nature of the series: SAXS; protein alone, concentration series 50, 100, 200, 300 uM; 150 mM NaCl, 20 mM Tris pH 7.0, 2 mM TCEP; 293 K; molecular weight by the Bayesian approach; monomer to dimer.
In series [7] the target is T1, Roquin-1 extROQ. As to the kind of experiment: EMSA; triplicate; EMSA: 150 mM NaCl, 20 mM Tris pH 7.0, 2 mM TCEP, 1 mM MgCl2, 0.6 ug yeast tRNAPhe per 20 ul, 15 min; temperature not stated; gel in 1x TB. The conditions noted are these: protein: recombinant; tags: tag removed by TEV; label: 5' 32P (EMSA); hairpin, apical hexaloop.
The target in series [8] is T2, Roquin-1 coreROQ. The description is as above. The following applies: protein: recombinant; tags: tag removed by TEV; label: 5' 32P (EMSA); hairpin, apical hexaloop.
In series [9] the target is T1, Roquin-1 extROQ. Nature of the series: EMSA; 2:1 stoichiometry; EMSA: 150 mM NaCl, 20 mM Tris pH 7.0, 2 mM TCEP, 1 mM MgCl2, 0.6 ug yeast tRNAPhe per 20 ul, 15 min; temperature not stated; gel in 1x TB. The conditions noted are these: protein: recombinant; tags: tag removed by TEV; label: 5' 32P (EMSA).

Turning to Ox40 CDE, the Kd (usually the free concentration of one partner at which half of the binding sites on the other are occupied at equilibrium, for simple one-to-one binding) in the series with Roquin-1 extROQ [1] (triplicate) was 149 nM; with Roquin-1 coreROQ [2] (triplicate) it was 460 nM.

Consider Ox40 tandem ADE-CDE, for which the Kd with Roquin-1 extROQ [1] (first binding event) was found to be 59 nM; in the series with Roquin-1 extROQ [1] (second binding event) it was 180 nM; with Roquin-1 coreROQ [2] (transitions not resolved) it was 379 nM; in series [3], 593 nM; in the series with Roquin-1 N-term (mouse), 78 nM.

B1: ADE-u-CDE (structured_RNA)
RNA: GCCUGCCAGUACCCUCCACACCGUUCUAGGUGCUGGGCUGGCUCUGGGCUGUAUGCUAUGCAUACUAC
With B1, the binding result in the series with Roquin-1 extROQ [4] is recorded as “binds”.

For the molecule GUAUUUAUGAUUUCCUAUGUAUGCUAUGCAUACUAC (structured_RNA) [extCDE], the Kd with Roquin-1 extROQ [5] (5' single strand plus hairpin) is roughly 50 nM.

B2: Roquin-1 amino-terminal part (N-term, residues 1-454) (domain or fragment, murine, UniProt Q4VGL6 1-454, looked up)
chain: MPVQAPQWTDFLSCPICTQTFDETIRKPISLGCGHTVCKMCLNKLHRKACPFDQTTINTDIELLPVNSALLQLVGAQIPEQQPITLCSGVEDTKHYEEAKKCVEELALYLKPLSSARGVGLNSTTQSVLSRPMQRKLVTLVHCQLVEEEGRIRAMRAARSLGERTVTELILQHQNPQQLSSNLWAAVRARGCQFLGPAMQEEALKLVLLALEDGSALSRKVLVLFVVQRLEPRFPQASKTSIGHVVQLLYRASCFKVTKRDEDSSLMQLKEEFRTYEALRREHDSQIVQIAMEAGLRIAPDQWSSLLYGDQSHKSHMQSIIDKLQTPASFAQSVQELTIALQRTGDPANLNRLRPHLELLANIDPSPDAPPPTWEQLENGLVAVRTVVHGLVDYIQNHSKKGADQQQPPQHSKYKTYMCRDMKQRGGCPRGASCTFAHSQEELEKFRKMNKRLV
notes: Roquin-1, murine, structured amino-terminal part with RING, ROQ and ZnF domains, residues 1-454 (theoretical MW 51.09 kDa); also called Roquin N-term; WT N-term; source: E. coli BL21 (DE3), expressed with 100 uM ZnCl2, purified (Ni-NTA, TEV cleavage, reverse Ni-NTA, SEC)
With B2, the binding result in series [6] is listed as “binds”.

For GCCUGCCAGUACCCUCCACACCGUUCUAGGUGCUGGGCUGGCUCUGGGC (structured_RNA) [Ox40 ADE], the Kd was 171 ± 17 nM with Roquin-1 extROQ [7] and 232 ± 29 nM in the series with Roquin-1 coreROQ [8].

B3: Bulge-CDE (structured_RNA)
RNA: GGAUUUUAUGGGGCACGGACAACCCAUAUCCUGAUUUUCCUAUGUAUGCUAUGCAUACUAC
In the case of B3, in the series with Roquin-1 extROQ [5], the Kd was roughly 70.7 nM.

B4: Ox40 full-length 3'UTR (structured_RNA)
RNA: GCAUUACUACAGGAGUGGAUUUUAUGGGGCACGGACAACCCAUAUCCUGAUGCCUGCCAGUACCCUCCACACCGUUCUAGGUGCUGGGCUGGCUCUGGGCUUUCCUAUGUAUGCUAUGCAUACUACCUGCCUGGUGGUGCUCCUAAUAAACAUGCUA
Regarding B4, the Kd with Roquin-1 extROQ [9] worked out at 63 ± 9 nM.
